Experimental findings from patent US20150274802A1 are described below.

One test deals with type A insulin receptor (UniProt P06213). Briefly: cell-based or functional assay.
A further test deals with type B insulin receptor (UniProt P06213). Nature of the test: cell-based or functional assay.
Test [1] addresses human IGF-1 receptor (human) (UniProt P08069). Briefly: cell-based or functional assay.
Test [2] addresses human insulin receptor (human) (UniProt P06213). Nature of the test: competition SPA, [125I]insulin.
For test [3], the target named is human IGF-1 receptor (human) (UniProt P08069). Briefly: competition SPA, [125I]IGF-1.

“And” between values parts separate entries of the source, which are not always exact repeats. Equal entries are not always repeated.

“MIU-69: B2, A14-PEG10K di-PEGylated MIU-35 (ligand)”: the values for the % Insulin Activity (in vitro, assay not named) (with type A insulin receptor; with type B insulin receptor; in test [1]) were 1%, 0.5% and less than 0.1%, respectively.

Usually IC50 stands for the concentration that inhibits the measured activity by half. High values mean weaker potency, low ones greater potency. On to “IGF-1 A:In (1-17)-IGF-1 B(18-30) (from UniProt P05019 18-30) (ligand)”, for which, in test [2], the % insulin (in test) was 11.3% and 20.1%; the % native insulin activity (0.6 nM) was 22.5% and 24.2%; the IC50 was 2.67 nM and 2.48 nM. In test [3], this substance registered a % IGF-1 (in test) of 0.9% and a % native IGF-1 activity (0.55 nM) of 0.9%.

“MIU-68: B2, B22-PEG10K di-PEGylated MIU-35 (ligand)”: the % Insulin Activity (in vitro, assay not named) with type A insulin receptor is 0.4%; with type B insulin receptor, 0.1%; in test [1] it was less than 0.1%.

Regarding “MIU-67: B2, C8-PEG10K di-PEGylated MIU-35 (ligand)”, the % Insulin Activity (in vitro, assay not named) with type A insulin receptor is 0.2%; in the test with type B insulin receptor it was 0.1%; in test [1], less than 0.1%.
